Measurements published in PMC9482650, “Quantitative fragmentomics allow affinity mapping of interactomes” (Nature Communications, 2022).

T1: LIN7A, O14910
T1 sequence (O14910 103-200, limits assumed, looked up): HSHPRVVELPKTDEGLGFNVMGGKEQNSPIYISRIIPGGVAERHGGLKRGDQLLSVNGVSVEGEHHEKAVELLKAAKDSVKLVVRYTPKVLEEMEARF

T2: DFNB31_3, Q9P202
T2 sequence (Q9P202 811-907, limits assumed, looked up): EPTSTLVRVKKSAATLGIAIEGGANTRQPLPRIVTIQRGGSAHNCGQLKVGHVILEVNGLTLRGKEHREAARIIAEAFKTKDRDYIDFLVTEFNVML

T3: DLG3_2, Q92796
T3 sequence (Q92796 221-321, limits assumed, looked up): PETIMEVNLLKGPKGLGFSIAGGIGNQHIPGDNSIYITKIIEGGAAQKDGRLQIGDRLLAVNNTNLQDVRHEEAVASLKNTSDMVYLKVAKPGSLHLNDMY

T4: SYNJ2BP, P57105
T4 sequence (P57105 8-110, limits assumed, looked up): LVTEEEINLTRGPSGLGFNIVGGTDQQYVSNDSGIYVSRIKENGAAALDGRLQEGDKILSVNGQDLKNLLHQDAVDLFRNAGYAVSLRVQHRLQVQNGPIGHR

T5: TJP3_3, O95049
T5 sequence (O95049 375-456, limits assumed, looked up): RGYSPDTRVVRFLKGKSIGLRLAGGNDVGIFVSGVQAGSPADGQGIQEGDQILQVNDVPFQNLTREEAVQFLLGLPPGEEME

T6: PARD3B_1, Q8TEW8
T6 sequence (Q8TEW8 196-299, limits assumed, looked up): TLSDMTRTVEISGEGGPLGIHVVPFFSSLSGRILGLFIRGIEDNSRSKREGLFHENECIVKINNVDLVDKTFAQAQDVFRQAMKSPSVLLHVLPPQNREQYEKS

T7: NHERF3_1, Q5T2W1
T7 sequence (Q5T2W1 4-100, limits assumed, looked up): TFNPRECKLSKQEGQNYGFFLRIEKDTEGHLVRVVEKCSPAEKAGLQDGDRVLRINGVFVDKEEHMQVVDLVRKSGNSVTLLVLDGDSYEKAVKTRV

T8: SNTG1, Q9NSN8
T8 sequence (Q9NSN8 52-150, limits assumed, looked up): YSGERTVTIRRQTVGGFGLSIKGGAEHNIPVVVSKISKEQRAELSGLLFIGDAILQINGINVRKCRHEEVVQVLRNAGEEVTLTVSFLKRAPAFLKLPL

T9: RADIL, Q96JH8
T9 sequence (Q96JH8 971-1071, limits assumed, looked up): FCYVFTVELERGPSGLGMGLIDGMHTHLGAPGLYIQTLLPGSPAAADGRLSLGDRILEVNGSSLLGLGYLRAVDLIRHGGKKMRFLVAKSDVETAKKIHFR

T10: APBA3_1, O96018
T10 sequence (O96018 389-490, limits assumed, looked up): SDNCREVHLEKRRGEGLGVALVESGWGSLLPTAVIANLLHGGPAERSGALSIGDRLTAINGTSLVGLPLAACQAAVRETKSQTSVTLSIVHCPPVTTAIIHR

T11: TX1BP3, O14907
T11 sequence (O14907 10-122, limits assumed, looked up): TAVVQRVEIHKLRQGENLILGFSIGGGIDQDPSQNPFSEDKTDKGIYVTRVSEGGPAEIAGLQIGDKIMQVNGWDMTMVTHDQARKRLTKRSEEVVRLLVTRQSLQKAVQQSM


Legend:
Assay in all cases: holdup assay
Design in all cases: key: below the threshold = too weak to quantify, mostly under pKd 3.1 to 4
Settings in all cases: plain residues with an end cap or a label only (N-terminal biotin on a linker: ado-ado)
FRMPD3, Q5JV73 = target: FRMPD3, Q5JV73
FRMPD3, Q5JV73, sequence (Q5JV73 12-100): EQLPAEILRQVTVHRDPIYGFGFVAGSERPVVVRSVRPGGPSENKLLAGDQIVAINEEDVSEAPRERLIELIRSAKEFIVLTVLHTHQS

LIN7A, O14910 = target: T1, LIN7A, O14910
DFNB31_3, Q9P202 = target: T2, DFNB31_3, Q9P202
MAGI2_6, Q86UL8 = target: MAGI2_6, Q86UL8
MAGI2_6, Q86UL8, sequence (Q86UL8 1141-1229): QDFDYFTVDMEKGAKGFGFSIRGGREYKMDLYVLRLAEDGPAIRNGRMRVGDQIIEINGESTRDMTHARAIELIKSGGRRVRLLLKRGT

DLG3_2, Q92796 = target: T3, DLG3_2, Q92796
GORASP2, Q9H8Y8 = target: GORASP2, Q9H8Y8
NOS1, P29475 = target: NOS1, P29475
NOS1, P29475, sequence (P29475 9-101): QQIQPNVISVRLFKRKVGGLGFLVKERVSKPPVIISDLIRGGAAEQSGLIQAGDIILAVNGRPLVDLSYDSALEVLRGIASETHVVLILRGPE

CASK, O14936 = target: CASK, O14936
CASK, O14936, sequence (O14936 487-570): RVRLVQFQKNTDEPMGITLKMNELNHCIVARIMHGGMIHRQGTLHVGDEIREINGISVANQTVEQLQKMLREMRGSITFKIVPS

SYNJ2BP, P57105 = target: T4, SYNJ2BP, P57105
Inadl_9, Q8NI35 = target: Inadl_9, Q8NI35
Inadl_9, Q8NI35, sequence (Q8NI35 1530-1615): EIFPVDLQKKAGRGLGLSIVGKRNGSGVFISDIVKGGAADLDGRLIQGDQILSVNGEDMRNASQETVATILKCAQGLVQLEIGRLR

TJP3_3, O95049 = target: T5, TJP3_3, O95049
FRMPD2_1, Q68DX3 = target: FRMPD2_1, Q68DX3
FRMPD2_1, Q68DX3, sequence (Q68DX3 770-861): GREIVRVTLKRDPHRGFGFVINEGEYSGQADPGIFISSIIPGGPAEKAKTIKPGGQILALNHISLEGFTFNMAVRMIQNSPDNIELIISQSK

DLG5_1, Q8TDM6 = target: DLG5_1, Q8TDM6
DLG5_1, Q8TDM6, sequence (Q8TDM6 617-713): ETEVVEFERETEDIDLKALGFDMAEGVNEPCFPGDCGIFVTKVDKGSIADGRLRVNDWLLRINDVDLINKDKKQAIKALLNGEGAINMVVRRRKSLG

PARD3B_1, Q8TEW8 = target: T6, PARD3B_1, Q8TEW8
NHERF3_1, Q5T2W1 = target: T7, NHERF3_1, Q5T2W1
SNTG1, Q9NSN8 = target: T8, SNTG1, Q9NSN8
FRMPD4, Q14CM0 = target: FRMPD4, Q14CM0
FRMPD4, Q14CM0, sequence (Q14CM0 67-160): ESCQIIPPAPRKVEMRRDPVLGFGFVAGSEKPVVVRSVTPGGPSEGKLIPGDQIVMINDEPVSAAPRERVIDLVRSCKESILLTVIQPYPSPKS

RADIL, Q96JH8 = target: T9, RADIL, Q96JH8
IL16_4, Q14005 = target: IL16_4, Q14005
IL16_4, Q14005, sequence (Q14005 1229-1329): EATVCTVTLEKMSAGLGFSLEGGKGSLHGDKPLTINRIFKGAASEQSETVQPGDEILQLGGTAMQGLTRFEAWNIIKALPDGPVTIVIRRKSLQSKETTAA

GRIP2_5, Q9C0E4 = target: GRIP2_5, Q9C0E4
GRIP2_5, Q9C0E4, sequence (Q9C0E4 544-642): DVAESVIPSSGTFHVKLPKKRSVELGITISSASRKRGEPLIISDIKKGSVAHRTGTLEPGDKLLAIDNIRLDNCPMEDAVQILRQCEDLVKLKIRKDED

APBA3_1, O96018 = target: T10, APBA3_1, O96018
DLG2_2, Q15700 = target: DLG2_2, Q15700
TX1BP3, O14907 = target: T11, TX1BP3, O14907
MAGI1_1, Q96QZ7 = target: MAGI1_1, Q96QZ7
MAGI1_1, Q96QZ7, sequence (Q96QZ7 1-106): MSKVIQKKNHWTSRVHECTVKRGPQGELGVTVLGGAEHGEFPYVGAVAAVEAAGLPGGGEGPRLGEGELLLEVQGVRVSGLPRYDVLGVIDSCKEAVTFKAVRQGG

MAGI2_3, Q86UL8 = target: MAGI2_3, Q86UL8
MAGI2_3, Q86UL8, sequence (Q86UL8 600-682): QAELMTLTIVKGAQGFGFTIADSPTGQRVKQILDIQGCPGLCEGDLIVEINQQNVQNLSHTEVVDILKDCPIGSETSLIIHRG

IL16_3, Q14005 = target: IL16_3, Q14005
IL16_3, Q14005, sequence (Q14005 1107-1207): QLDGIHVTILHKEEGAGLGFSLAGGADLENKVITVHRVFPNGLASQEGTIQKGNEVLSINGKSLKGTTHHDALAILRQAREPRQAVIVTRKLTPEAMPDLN

DLG2_3, Q15700 = target: DLG2_3, Q15700

Row | Binder | pKd (FRMPD3, Q5JV73) | pKd (LIN7A, O14910) | pKd (MAGI2_6, Q86UL8) | pKd (DLG3_2, Q92796) | pKd (NOS1, P29475) | pKd (CASK, O14936) | pKd (Inadl_9, Q8NI35) | pKd (TJP3_3, O95049) | pKd (DLG5_1, Q8TDM6) | pKd (PARD3B_1, Q8TEW8) | pKd (NHERF3_1, Q5T2W1) | pKd (SNTG1, Q9NSN8) | pKd (FRMPD4, Q14CM0) | pKd (RADIL, Q96JH8) | pKd (IL16_4, Q14005) | pKd (GRIP2_5, Q9C0E4) | pKd (APBA3_1, O96018) | pKd (TX1BP3, O14907) | pKd (MAGI1_1, Q96QZ7) | pKd (MAGI2_3, Q86UL8) | other results
1 | EYRKDNKVAA [LSM14A, Q8ND56;Q8ND56-2] | below the threshold | below the threshold | below the threshold | 4.23 | below the threshold | below the threshold | below the threshold | below the threshold | below the threshold | below the threshold | below the threshold | below the threshold | below the threshold | below the threshold | below the threshold | below the threshold | below the threshold | below the threshold | below the threshold | below the threshold | pKd (DFNB31_3, Q9P202): below the threshold; pKd (SYNJ2BP, P57105): below the threshold
2 | VGIERETDVL [EZH1, Q92800] | below the threshold | – | below the threshold | 3.54 | below the threshold | below the threshold | below the threshold | below the threshold | below the threshold | 3.65 | below the threshold | below the threshold | 3.87 | below the threshold | 3.48 | below the threshold | below the threshold | below the threshold | below the threshold | below the threshold | pKd (DFNB31_3, Q9P202): below the threshold; pKd (GORASP2, Q9H8Y8): below the threshold; pKd (SYNJ2BP, P57105): below the threshold; pKd (FRMPD2_1, Q68DX3): below the threshold; pKd (DLG2_2, Q15700): below the threshold; pKd (IL16_3, Q14005): below the threshold; pKd (DLG2_3, Q15700): below the threshold

More lines, main results first:

Row | pKd (FRMPD3, Q5JV73) | pKd (LIN7A, O14910) | pKd (MAGI2_6, Q86UL8) | pKd (DLG3_2, Q92796) | pKd (NOS1, P29475) | pKd (CASK, O14936) | pKd (Inadl_9, Q8NI35) | pKd (TJP3_3, O95049) | pKd (DLG5_1, Q8TDM6) | pKd (PARD3B_1, Q8TEW8) | pKd (NHERF3_1, Q5T2W1) | pKd (SNTG1, Q9NSN8) | pKd (FRMPD4, Q14CM0) | pKd (RADIL, Q96JH8) | pKd (IL16_4, Q14005) | pKd (GRIP2_5, Q9C0E4) | pKd (APBA3_1, O96018) | pKd (TX1BP3, O14907) | pKd (MAGI1_1, Q96QZ7) | pKd (MAGI2_3, Q86UL8) | Binder | other results
3 | below the threshold | below the threshold | below the threshold | below the threshold | below the threshold | below the threshold | below the threshold | below the threshold | below the threshold | 5.17 | below the threshold | below the threshold | 3.82 | 3.52 | below the threshold | below the threshold | below the threshold | 3.71 | below the threshold | 3.54 | GDHLDRRVVL [VAC14, Q08AM6] | pKd (DFNB31_3, Q9P202): 3.82; pKd (GORASP2, Q9H8Y8): 3.87; pKd (SYNJ2BP, P57105): below the threshold; pKd (FRMPD2_1, Q68DX3): 3.62; pKd (DLG2_2, Q15700): below the threshold; pKd (IL16_3, Q14005): 3.58; pKd (DLG2_3, Q15700): below the threshold
4 | below the threshold | below the threshold | below the threshold | below the threshold | 4.36 | below the threshold | below the threshold | below the threshold | below the threshold | below the threshold | 3.9 | below the threshold | 3.66 | below the threshold | below the threshold | below the threshold | below the threshold | below the threshold | below the threshold | below the threshold | LRYARPADAL [PPP1R3G, B7ZBB8] | pKd (DFNB31_3, Q9P202): below the threshold; pKd (GORASP2, Q9H8Y8): below the threshold; pKd (SYNJ2BP, P57105): below the threshold; pKd (FRMPD2_1, Q68DX3): below the threshold; pKd (DLG2_2, Q15700): below the threshold; pKd (IL16_3, Q14005): below the threshold; pKd (DLG2_3, Q15700): below the threshold
5 | below the threshold | below the threshold | below the threshold | 4.07 | below the threshold | below the threshold | below the threshold | below the threshold | below the threshold | below the threshold | 3.91 | below the threshold | below the threshold | below the threshold | below the threshold | below the threshold | below the threshold | 3.93 | below the threshold | below the threshold | KSTTRSSSSC [NDE1, Q9NXR1;Q9NXR1-2] | pKd (GORASP2, Q9H8Y8): below the threshold; pKd (FRMPD2_1, Q68DX3): below the threshold; pKd (DLG2_2, Q15700): below the threshold; pKd (IL16_3, Q14005): below the threshold
